According to US20110113509, “RATIONALLY-DESIGNED MEGANUCLEASES FOR MAIZE GENOME ENGINEERING” (PRECISION BIOSCIENCES, INC., published 2011):
Numbering of substitutions follows the chain as printed.

Tests used:
[1] = molecular target: T1, LIG-34+ meganuclease (Artificial Sequence (derived from …)); experiment: cleavage_in_vitro; C50, enzyme to cut 50% of 10 nM linearized pUC19 substrate in 1 h; 37 C, SA buffer pH 8.0, 100 mM NaCl, 5 mM MgCl2, 5 mM EDTA; conditions: tags: C-terminal 6xHis; N-terminal SV40 NLS; inferred)
T1 chain: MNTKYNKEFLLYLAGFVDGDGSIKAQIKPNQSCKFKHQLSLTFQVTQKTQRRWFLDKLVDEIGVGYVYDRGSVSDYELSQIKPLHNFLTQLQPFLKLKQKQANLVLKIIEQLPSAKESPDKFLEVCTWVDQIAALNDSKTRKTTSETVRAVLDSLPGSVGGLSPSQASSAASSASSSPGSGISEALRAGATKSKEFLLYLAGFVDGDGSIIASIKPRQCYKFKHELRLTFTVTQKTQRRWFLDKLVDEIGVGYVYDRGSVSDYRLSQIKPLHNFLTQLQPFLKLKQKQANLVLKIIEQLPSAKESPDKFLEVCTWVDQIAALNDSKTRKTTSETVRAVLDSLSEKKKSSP
Procedure: (§1) The LIG-34 meganucleases were assayed for in vitro activity by incubation with linear, double-stranded DNA substrates containing the meganuclease recognition sequence. Synthetic oligonucleotides corresponding to both sense and antisense strands of the LIG-34 recognition site (SEQ ID NO: 2, SEQ ID NO: 3) were annealed and cloned into the SmaI site of the pUC19 plasmid by blunt-end ligation. The plasmid substrate was linearized with XmnI concurrently with the meganuclease digest. The enzyme digests contained 5 μl of 0.05 μM DNA substrate, 5 μl of meganuclease at varying concentrations (diluted in SA buffer, see below), 14.5 μl SA buffer, and 0.5 μl XmnI. LIG-34 enzyme concentration was varied from 5-400 nM (final concentration). Digests were incubated at 37° C. for 1 hour. Digests were stopped by adding 0.3 mg/ml Proteinase K and 0.5% SDS, and incubated for one hour at 37° C. Digests were analyzed on 1.5% agarose and visualized by ethidium bromide staining.
(§2) Digestion of the linearized plasmid with LIG34, LIG34+ or LIG34++ meganuclease produced two bands on the gel of the sizes corresponding to a simple cut at the LIG-34 site. All of the LIG-34 meganucleases efficiently cut the plasmid substrate harboring the LIG-34 recognition site. […] Thus, while all three enzymes efficiently cleave the LIG-34 site sequence, they do so with varying activity levels (LIG-34<LIG-34+<LIG-34++).

[2] = molecular target: T2, LIG-34 meganuclease (Artificial Sequence (derived from …)); experiment: as above; conditions: tags: C-terminal 6xHis; N-terminal SV40 NLS; inferred)
T2 chain: T1 chain with T229E
Procedure: as §1, §2

B1: LIG-34 recognition site (dsDNA)
DNA 1: TACGCGTACGTGTGAGGTATAT
DNA 2: ATATACCTCACACGTACGCGTA
- EC50 [1]: ~13 nM
- EC50 [2]: ~16 nM
